According to article PMC6147952, “Acylated-acyl carrier protein stabilizes the Pseudomonas aeruginosa WaaP lipopolysaccharide heptose kinase” (Scientific Reports, 2018):

Target: T1, C-terminal hexa-histidine tagged P. aeruginosa WaaP (1–264) (P. aeruginosa, UniProt Q9HUF7 1-264, selenomethionine substituted)
T1 construct: WaaP, lipopolysaccharide core heptose kinase of Pseudomonas aeruginosa (strains derived from PAO1), residues 1-264; A loop (54-72) is disordered in the crystal; also called WaaP-His; LPS heptose kinase WaaP; source: E. coli BL21(DE3)/pLysS, pET21b-waaP, purified (IMAC, Mono-Q, CM-sepharose, Superdex75); not shown: His6, C-terminal, kept
T1 sequence (looked up): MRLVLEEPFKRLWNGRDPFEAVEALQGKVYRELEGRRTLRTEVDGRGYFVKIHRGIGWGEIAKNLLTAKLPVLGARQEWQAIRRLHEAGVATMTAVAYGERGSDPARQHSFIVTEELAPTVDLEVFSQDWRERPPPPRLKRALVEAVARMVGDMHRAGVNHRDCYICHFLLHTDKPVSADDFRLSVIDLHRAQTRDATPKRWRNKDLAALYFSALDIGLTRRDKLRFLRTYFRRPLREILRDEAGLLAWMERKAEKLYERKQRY
Assay: crystal structure; selenomethionine WaaP-His co-purified with E. coli acyl-ACP; hanging drops at 4 °C, 100 mM HEPES-NaOH pH 7.4, 5% Jeffamine M-600; 2.5 Å
Conditions: both partners purified

B1: E. coli acylated acyl-carrier protein (acyl-ACP) (natural protein, UniProt P0A6A8 1-78, looked up)
chain: MSTIEERVKKIIGEQLGVKQEEVTNNASFVEDLGADSLDTVELVMALEEEFDTEIPDEEAEKITTVQAAIDYINGHQA
modifications: phosphopantetheine on S36 carrying a C16:0 (palmitoyl) or C18:1 acyl chain (palmitoyl modelled in the crystal); selenomethionine
notes: acyl carrier protein of E. coli, 77 amino acids as printed; In the in vitro synthesis experiment (functional row) the ACP was purified E. coli holo-ACP palmitoylated by V. harveyi AasS; Its construct is described only in the Supplementary Information; also called palmitoyl-ACP; source: endogenous, E. coli BL21(DE3)/pLysS, co-purified with WaaP-His
stoichiometry N: 1
